Assay results: the Human Domainome abundance scans (Beltran et al. 2025)
± gives the uncertainty stated by the source.

B1: Triacylglycerol hydrolase DDHD2, residues 389 to 447; numbered along this chain, O94830 (parent)
chain: TLEEDLKKLQLSEFFDIFEKEKVDKEALALCTDRDLQEIGIPLGPRKKILNYFSTRKNS

Variants of: B1
Experiment: abundance fitness (aPCA) (normalised: wild type 0, dead -1); higher = more abundant; growth selection in yeast, the domain comes from the species named
Details: Homo sapiens

| Variant | abundance fitness |
| --- | --- |
| E26V | -0.21 ± 0.08 |
| E26Q | -0.107 ± 0.1 |
| E26D | 0.002 ± 0.12 |
| E26F | -0.223 ± 0.14 |
| L36M | -0.164 ± 0.08 |
| L36Q | -0.448 ± 0.12 |
| L36I | -0.465 ± 0.11 |
| L36N | -0.267 ± 0.098 |
| K48N | -0.344 ± 0.11 |
| K48C | -0.408 ± 0.1 |
| K48F | -0.457 ± 0.13 |
| K48I | 0.104 ± 0.12 |
| K48E | 0.036 ± 0.1 |
| K48P | -0.494 ± 0.12 |
| K48M | 0.146 ± 0.11 |
| I41E | -0.13 ± 0.086 |
| I41F | -0.888 ± 0.25 |
| I41M | 0.134 ± 0.08 |
| I41W | -0.831 ± 0.11 |
| I41Y | -0.689 ± 0.2 |
| T1I | -0.572 ± 0.21 |

| Variant | abundance fitness |
| --- | --- |
| T1P | -0.999 ± 0.42 |
| T1V | -0.44 ± 0.15 |
| T1K | -0.425 ± 0.24 |
| T1N | 0.235 ± 0.29 |
| T1E | -0.042 ± 0.17 |
| T1L | -0.488 ± 0.18 |
| T1Y | 0.138 ± 0.38 |
| D16L | -0.33 ± 0.06 |
| D16G | -0.088 ± 0.046 |
| D16Q | 0.106 ± 0.072 |
| D16K | 0.089 ± 0.077 |
| D16P | -0.145 ± 0.066 |
| D16Y | -0.435 ± 0.2 |
| D16R | 0.049 ± 0.047 |
| L43T | 0.543 ± 0.054 |
| L43G | 0.231 ± 0.052 |
| L43N | 0.295 ± 0.055 |
| L43W | 0.16 ± 0.082 |
| L43Y | 0.473 ± 0.053 |
| L43I | 0.496 ± 0.057 |
| L43C | 0.47 ± 0.056 |

| Variant | abundance fitness |
| --- | --- |
| G44M | 0.06 ± 0.069 |
| G44P | -0.079 ± 0.064 |
| G44I | 0.418 ± 0.052 |
| G44D | 0.342 ± 0.058 |
| G44Q | 0.333 ± 0.069 |
| G44S | 0.167 ± 0.048 |
| G44K | 0.18 ± 0.072 |
| G44W | -0.275 ± 0.07 |
| G44E | 0.574 ± 0.079 |
| E21P | -0.27 ± 0.099 |
| E21F | 0.616 ± 0.11 |
| E21K | 0.809 ± 0.093 |
| E21Q | 0.137 ± 0.094 |
| E21L | 0.45 ± 0.06 |
| E21Y | 0.385 ± 0.12 |
| E21M | 0.86 ± 0.084 |
| E21T | 0.212 ± 0.084 |
| L50M | -0.209 ± 0.1 |
| L50Q | -0.345 ± 0.11 |
| L50F | -0.008 ± 0.15 |
| L50G | -0.291 ± 0.061 |

| Variant | abundance fitness |
| --- | --- |
| L50D | 0.14 ± 0.11 |
| L50T | -0.209 ± 0.092 |
| K57V | -0.175 ± 0.072 |
| K57W | -0.525 ± 0.086 |
| K57G | -0.031 ± 0.061 |
| K57N | -0.287 ± 0.15 |
| F15G | 0.007 ± 0.071 |
| F15S | 0.088 ± 0.076 |
| F15T | 0.112 ± 0.07 |
| F15K | 0.068 ± 0.097 |
| F15M | -0.175 ± 0.098 |
| P45A | 0.615 ± 0.067 |
| P45R | -0.716 ± 0.09 |
| P45H | -0.261 ± 0.094 |
| P45M | 0.019 ± 0.11 |
| P45S | -0.032 ± 0.068 |
| E19L | 0.054 ± 0.062 |
| E19I | 0.007 ± 0.1 |
| E19R | -0.007 ± 0.062 |
| E19C | -0.161 ± 0.089 |
| E19F | -0.082 ± 0.11 |
